Test results taken from patent US8362216B2, “Method of detection using antibodies that specifically bind hedgehog-derived polypeptides” (The Johns Hopkins University School of Medicine, priority 1994, dated 2013).
Entries after “also recorded” stand apart in the source; their conditions may differ.

Experiments:
His6Hh-C protein = His6Hh-C protein (Drosophila melanogaster, UniProt Q02936, DEL89-254); assay: In vitro autocleavage reaction of bacterially expressed His6Hh-C protein (DTT / lipid stimulation); settings: lipid added with 1 mM DTT (cholesterol 0.35 mM)
His6Hh-C protein, sequence (Q02936 other isoform, or with tags, fused parts or gaps DEL89-254): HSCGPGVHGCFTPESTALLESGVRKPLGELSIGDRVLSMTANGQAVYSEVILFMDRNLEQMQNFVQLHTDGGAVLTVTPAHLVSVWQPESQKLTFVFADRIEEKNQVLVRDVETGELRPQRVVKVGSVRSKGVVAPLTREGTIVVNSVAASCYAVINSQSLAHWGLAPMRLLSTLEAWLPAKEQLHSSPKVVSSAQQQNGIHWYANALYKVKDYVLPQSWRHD

cholesterol biosynthesis = assay: Sterol analysis by HPLC of COS-7 cells metabolically labelled with [3H]-mevalonic acid; format: cell-based, green monkey; settings: 28 mM jervine
Procedure: Given the structural similarities of these compounds to cholesterol and the similar teratogenic effects of cholesterol synthesis inhibitors upon the offspring of pregnant rats, a reasonable mechanism to consider for the effects of these plant sterol derivatives was the inhibition of cholesterol biosynthesis. Accordingly, COST cultured cells treated with jervine were tested for defects in cholesterol biosynthesis by labelling with [3H]-mevalonic acid and then extracting and analyzing radiolabeled, non-saponifiable lipids.
Metabolic labeling and sterol analysis was essentially as described (Popjak et al. J. Biol. Chem. 264: 630-6238.1989; Rilling et al. 1993 Arch. Biochem. Biophys. 301: 210-215.), with minor modifications. Briefly, COS-7 cells were plated at ˜35% confluence into two 60 mm dishes at 37° C. in 4 ml each of Dulbecco's modified Eagle's medium (DMEM) supplemented with 10% fetal bovine serum (FBS). After 24 hr of growth the medium in each dish was replaced with 2 ml fresh medium with 10% FBS; [^3H]-mevalonic acid (NEN #NET 176) brought to a specific activity of 0.8 Ci/mmol in a 1% solution of bovine serum albumin was added to this medium to a final concentration of […]. At this time, one dish received […] of a 4 mg/ml solution of jervine in ethanol (final concentration 28 mM jervine), and the other received […] of ethanol. After 24 hr further incubation, cells were washed in PBS, extracted with methanol, and 1 M potassium hydroxide (KOH) added to 10%. Following a three hour incubation at 60° C., the methanol/KOH mixture was extracted with diethyl ether, the extract dried down, resuspended in isopropanol, and subjected to reverse phase HPLC analysis by the method of Rodriguez and Parks (Methods in Enzymology 111: 37-51 1985).

[1] = Heparin agarose binding of in vitro translated Hh protein species; parameters: species or system Drosophila; settings: wash with 0.1% Triton X-100 and 150 mM NaCl
Procedure: In vitro translations were performed with the use of the TNT coupled transcription-translation system (Promega). ^35S methionine (DuPont NEN) was used for detection by autoradiography. […] Samples were incubated at 4° C. for four hours with gentle rocking. After pelleting the beads, supernatants in some samples were analyzed (lanes 2 and 4). The beads were then washed 5 times with chilled HBB and samples (lanes 3 and 5) were subsequently eluted at 80° C. for 10 minutes in SDS PAGE loading buffer (F. M. Ausubel et al., supra).
One possible explanation for this differential behavior might be association of the N fragment with extracellular matrix proteins on the surfaces of the S2 cells. Accordingly, the relative affinity of these two proteins for heparin agarose was examined, since heparin binding is a common property of proteins that associate with the extracellular matrix. Given the obvious difficulty in obtaining soluble N from cultured cells, in vitro translation in the presence of microsomes was used to generate soluble, labelled N and C. […] Furthermore, N but not C was retained upon the heparin agarose beads upon extensive washing with a solution that contains 0.1% Triton X-100 and 150 mM NaCl; in contrast, neither fragment was retained by unmodified agarose. […]

[2] = system: pax-2 and pax-6 expression; assay: Ectopic expression of twhh derivatives by mRNA injection into zebrafish embryos; format: in vivo; settings: mRNA injected embryos
Procedure: To gain insight into the potential roles of hh products in development, synthetic twhh and shh mRNA was injected into 1-8 cell embryos. This technique yields a mosaic but fairly uniform pattern of expression, as determined for the control mRNA encoding β-galactosidase (not shown). Uniformity of expression is in good agreement with fate mapping studies of the early zebrafish embryo (Kimmel & Warga, supra; Warga & Kimmel, supra; Heide, et al., Science, 265:517-520, 1994), which indicate that blastomeres undergo extensive cell mixing during the cleavages pnor to gastrulation.
Ectopic hh alters the expression of par-2, pax-6, and F-spondin. Zebrafish embryos were injected at the 1-8 cell stage with twhh or shh RNA and the pattern of pax-2, pax-6, or F-spondin expression was examined by whole mount in situ hybridization. […] At embryo stage, the anterior-posterior axis of the optic vesicle corresponds to the future proximal-distal axis of the eye. During the next hour of development, the posterior edge of the optic vesicle will separate from the diencephalon (Schmitt and Dowling, Comp. Neur., 344:532-542. 1994).
17(a) Cartoons of various twhh open reading frames. SS (shaded) is the predicted N-terminal signal sequence for secretion of these proteins and encompasses the first 27 amino acids of each open reading frame. The arrow indicates the predicted internal site of auto-proteolytic cleavage. Amino acid residue numbers are according to FIG. 13b. The filled triangle denotes the normal termination codon for the twhh open reading frame. Construct UHA contains a mutation that blocks auto-proteolysis (the histidine at residue 273 is changed to an alanine; see Lee, J. J., et al, supra.). Construct U356HA contains a stop codon in place of amino acid residue 357 as well as the H273A mutation in UHA. Construct N encodes just the first 200 amino acids of twhh. Construct C has had the codons for residues 31-197 deleted. […] Constructs were translated in vitro in the presence of ^35S methionine and analyzed by autoradiography after SDS-PAGE. The protein products are shown schematically to the left. […]

auto-proteolysis = assay: In vitro translation of wild-type and mutant Hh proteins (mapping of auto-proteolysis); format: biochemical, Drosophila; zebrafish
Hh autoprocessing = assay: In vitro autocleavage assays of site-directed mutant His6Hh-C proteins; settings: 6 hours at 30° C.
[3] = system: wg and dpp expression in imaginal discs; assay: Signaling in imaginal discs of thermally cycled larvae (wg-lacZ / dpp-lacZ, X-gal staining); settings: thermal cycling of larvae
Text: For studies of signaling in imaginal discs, a thermal cycler was utilized to subject larvae carrying heat shock-inducible hh constructs to successive rounds of heat shock and recovery. The effects of temperature cycling upon expression of dpp and wg in imaginal discs was examined by monitoring β-galactosidase expression from a reporter gene carrying dpp promoter sequences or from an enhancer detector P element inserted in the wg gene. In FIG. 7, X-gal staining was used to follow expression of wg FIG. 7 (A-C) or dpp FIG. 7 (D-L) in imaginal discs of late third-instar larvae that carry wg-lacZ or dpp-lacZ reporter genes.
Virgin female flies from the homozygous lines hshh (D. T. Chang et al., Development, 1994, in press), hshh H329A, and y^1 w^1118 were crossed to males from the homozygous BS3.0 line (bearing a P element dpp reporter construct on the 2nd chromosome, referred to as dpp-lacZ) (R. K. Blackman, et al., Development 111: 657, 1991) or the line y; Sco/CyO, enlacZ11::wg (bearing a wg reporter P element enhancer trap on a second chromosome balancer; called wg-lacZ) (J. A. Kassis, et al., Proc. Natl. Acad. Sci. U.S.A. 89; 1919, 1992). Progeny were grown at 25° C. in aerated 0.5-ml microcentrifuge tubes containing yeast paste until the late second instar or early third instar stage of larval development. […]

wg expression = assay: Embryonic induction of wg expression after heat shock of hshh / hshh H329A embryos (in situ hybridization)
Text: To ascertain the importance of auto-proteolysis for these functions, the H329A mutant gene under control of the hsp 70 promoter was introduced by P element-mediated transformation into the Drosophila germline. The hshh H329A construct was made identically to the hshh construct with the use of a hh ORF fragment containing the H329A mutation. Transgenic flies were generated from a y^1 w^1118 parental strain using standard methods of P element mediated transformation (A. C. Spradling and G. M. Rubin, Science 218: 341 1982). […] To assay for expansion of wg stripes, embryos collected at 4 to 6 hours after egg laying (AEL) at 25° C. were subjected to the following heat shock protocols prior to fixation. Embryos receiving single shocks (10 or 30 minutes at 37° C.) were allowed to recover for 1 hour at 25° C. Embryos receiving double shocks (two 10 minute or two 30 minute shocks at 37° C.) were allowed to recover 90 minutes after the first shock and 40 minutes after the second (Both recoveries were at 25° C. The double 30 minute protocol was as previously described, (S. Krauss, supra). In situ hybridizations were performed as described (D. Tautz, Chromosoma 98: 81, 1989) using a wg specific probe (D. T. Chang et al., supra). Embryos assayed for cuticle phenotype were heat shocked 6 to 8 hours AEL for 30 minutes at 37° C., allowed to develop at 25° C. for 36 hours and then processed and mounted as described (M. Ashburner, Drosophila: A Laboratory Manual, Cold Spring Harbor Laboratory Press, New York, 1989).

In the case of CC(C)CCC[C@@H](C)[C@H]1CC[C@H]2[C@@H]3CC=C4C[C@@H](O)CC[C@]4(C)[C@H]3CC[C@]12C [cholesterol], the “Stimulation of His6Hh-C autocleavage in vitro” value (His6Hh-C protein) is reported as “stimulates His2Hh-C autocleavage; also recorded: displayed stimulatory activity similar to that observed with lipids extracted from spot B”.

For CC1=C2C(=O)[C@H]3[C@@H](CC=C4C[C@@H](O)CC[C@@]43C)[C@@H]2CC[C@]12O[C@@H]1C[C@H](C)CN[C@H]1[C@H]2C [jervine], the “Accumulation of another radiolabeled sterol (tentatively zymosterol)” value (cholesterol biosynthesis; COS 7 cells, 24 hr) was “another radiolabeled sterol was found to accumulate”, the Radiolabeled cholesterol levels (cholesterol biosynthesis; COS 7 cells, 24 hr) was “reduced” and the “Cholesterol biosynthesis in cultured cells” value (cholesterol biosynthesis; COS-7 cells) was “inhibits cholesterol biosynthesis”.

B1: C-terminal fragment: Drosophila hh 25 kD C-terminal fragment (protein)
chain: CFTPESTALLESGVRKPLGELSIGDRVLSMTANGQAVYSEVILFMDRNLEQMQNFVQLHTDGGAVLTVTPAHLVSVWQPESQKLTFVFADRIEEKNQVLVRDVETGELRPQRVVKVGSVRSKGVVAPLTREGTIVVNSVAASCYAVINSQSLAHWGLAPMRLLSTLEAWLPAKEQLHSSPKVVSSAQQQNGIHWYANALYKVKDYVLPQSWRHD
With B1 the “Binding to heparin agarose” value [1] was “not bound effectively by heparin agarose”.

B2: UHA: twhh with H273A mutation that blocks auto-proteolysis (protein, UniProt Q90419 27-416, looked up, variant H273A)
Tiggy-winkle hedgehog protein: CGPGRGYGKRRHPKKLTPLAYKQFIPNVAEKTLGASGKYEGKITRNSERFKELIPNYNPDIIFKDEENTNADRLMTKRCKDKLNSLAISVMNHWPGVKLRVTEGWDEDGHHLEESLHYEGRAVDITTSDRDKSKYGMLSRLAVEAGFDWVYYESKAHIHCSVKAENSVAAKSGGCFPGSGTVTLGDGTRKPIKDLKVGDRVLAADEKGNVLISDFIMFIDHDPTTRRQFIVIETSEPFTKLTLTAAALVFVGNSSAASGITATFASNVKPGDTVLVWEDTCESLKSVTVKRIYTEEHEGSFAPVTAHGTIIVDQVLASCYAVIENHKWAHWAFAPVRLCHKLMTWLFPARESNVNFQEDGIHWYSNMLFHIGSWLLDRDSFHPLGILHLS
In the case of B2, the “Ectopic activation (induction) of pax-2 in the developing eye” value [2] is reported as “only somewhat less active than C in inducing pax-2” and the “Repression of pax-6” value [2] is reported as “not able to repress pax6 efficiently”.

B3: U356HA: twhh with stop codon in place of residue 357 and the H273A mutation (protein, UniProt Q90419 27-416, looked up, variant H273A)
Tiggy-winkle hedgehog protein: B2 Tiggy-winkle hedgehog protein
modifications: truncated after residue 356
notes: twhh with stop codon in place of residue 357 and the H273A mutation
In the case of B3, the “Repression of pax-6” value [2] is reported as “activities not significantly different from N”.

B4: H329A: Drosophila Hh with His-329 to alanine; in vitro translated full length and His6Hh-C25 context (protein)
chain: CGPGRGLGRHRARNLYPLVLKQTIPNLSEYTNSASGPLEGVIRRDSPKFKDLVPNYNRDILFRDEEGTGADRLMSKRCKEKLNVLAYSVMNEWPGIRLLVTESWDEDYHHGQESLHYEGRAVTIATSDRDQSKYGMLARLAVEAGFDWVSYVSRRHIYCSVKSDSSISSHVHGCFTPESTALLESGVRKPLGELSIGDRVLSMTANGQAVYSEVILFMDRNLEQMQNFVQLHTDGGAVLTVTPAALVSVWQPESQKLTFVFADRIEEKNQVLVRDVETGELRPQRVVKVGSVRSKGVVAPLTREGTIVVNSVAASCYAVINSQSLAHWGLAPMRLLSTLEAWLPAKEQLHSSPKVVSSAQQQNGIHWYANALYKVKDYVLPQSWRHD
For B4, the “Auto-proteolysis (processing) of in vitro translated protein” value (auto-proteolysis) was “blocked or severely inhibited”, the “Cholesterol-stimulated autocleavage (cholesterol transfer)” value (Hh autoprocessing; 350 μM cholesterol/1 mM DTT) was “inactive” and the “DTT-stimulated autocleavage (thioester formation)” value (Hh autoprocessing; 50 mM DTT) was “inactive”.

B5: hshh H329A: heat shock-inducible hh with H329A mutation blocking auto-proteolysis (protein)
chain: B4 chain
In the case of B5, the “Expansion of dpp expression in the eye-antennal disc” value [3] is reported as “did not induce expansion of dpp expression”, the “wg and dpp expression patterns in the leg disc” value [3] is reported as “produced little if any detectable difference in these patterns of expression” and the “Expansion of wg expression beyond wild-type controls, average number of cell diameters ± standard deviation” value (wg expression; minutes of heat shock: 10) is reported as 0.7 ± 0.5 cell diameters. The “Expansion of wg expression beyond wild-type controls, average number of cell diameters ± standard deviation” value (wg expression; minutes of heat shock: 10/10) was 1.1 ± 0.4 (145) cell diameters, the “Expansion of wg expression beyond wild-type controls, average number of cell diameters ± standard deviation” value (wg expression; minutes of heat shock: 30) was 0.9 ± 0.4 (111) cell diameters and the “Expansion of wg expression beyond wild-type controls, average number of cell diameters ± standard deviation” value (wg expression; minutes of heat shock: 30/30) was 1.9 ± 0.5 (93) cell diameters.
